Where “and” joins values, the source holds several entries; their conditions need not be identical. Equal values may be shown once.

FVIII binding (%) data for one substance are collected here from patent US20110092681A1.

For the assay, the target named is rFVIII (recombinant Factor VIII) (UniProt P00451). Nature of the assay: ELISA chromogenic assay (ECA): rFVIII incubated with rVWF, complex captured on anti-VWF antibody, bound FVIII read by chromogenic assay. (In general: In an ELISA, binding on a coated surface is turned into a signal by an enzyme label.)

For the substance “human recombinant VWF (rVWF) (from UniProt P04275 764-2813)”, the FVIII binding (%) is 51.7% and 64.6% and 63.1%.
